{"source": "patent US20190375831A1", "key": {"[1]": {"molecular_target": "recombinant PfCSP (rPfCSP, residues 21-375) (Plasmodium falciparum) (UniProt P19597)", "sequence (P19597 21-375)": "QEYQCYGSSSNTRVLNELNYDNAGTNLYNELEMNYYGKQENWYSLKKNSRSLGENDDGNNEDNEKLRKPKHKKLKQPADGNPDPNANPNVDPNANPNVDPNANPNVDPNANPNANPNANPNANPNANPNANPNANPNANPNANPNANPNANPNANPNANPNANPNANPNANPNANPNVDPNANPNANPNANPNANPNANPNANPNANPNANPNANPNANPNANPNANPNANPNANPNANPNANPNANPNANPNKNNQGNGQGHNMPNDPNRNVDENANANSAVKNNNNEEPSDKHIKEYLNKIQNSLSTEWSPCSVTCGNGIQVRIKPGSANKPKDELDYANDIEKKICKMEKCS"}, "[2]": {"molecular_target": "recombinant PfCSP (rPfCSP, residues 21-375) (Plasmodium falciparum) (UniProt P19597)", "test": "ELISA on coated rPfCSP, OD405nm"}, "[3]": {"molecular_target": "recombinant PfCSP (rPfCSP, residues 21-375) (Plasmodium falciparum) (UniProt P19597)", "test": "biolayer interferometry, biotinylated CSP on the sensor, whole IgG in solution; apparent KD"}}}
{"substance": "mAb CIS43 (antibody)", "values": [{"measurement": "-TΔS1", "setting": "[1]", "result": 8.4, "unit": "kcal/mol"}, {"measurement": "-TΔS2", "setting": "[1]", "result": 0.1, "unit": "kcal/mol"}, {"measurement": "N1 (stoichiometry)", "setting": "[1]", "result": 1.2}, {"measurement": "N2 (stoichiometry)", "setting": "[1]", "result": 5.1}, {"measurement": "ΔH1", "setting": "[1]", "result": -19.5, "unit": "kcal/mol"}, {"measurement": "ΔH2", "setting": "[1]", "result": -10.2, "unit": "kcal/mol"}, {"measurement": "EC50 (read off the curve)", "setting": "[2]", "result": 0.003, "unit": "µg/mL"}, {"measurement": "Kd", "setting": "[3]", "result": 0.91, "unit": "nM"}]}
{"substance": "mAb2A10 (antibody)", "values": [{"measurement": "EC50 (read off the curve)", "setting": "[2]", "result": 0.04, "unit": "µg/mL"}, {"measurement": "Kd", "setting": "[3]", "result": 0.15, "unit": "nM"}]}
